One data set addresses c-Src SH2. Nature of the data set: SH2 binding enrichment of the phosphorylated peptide, bacterial display (enrichment ratio); higher = better substrate or ligand; peptides without Tyr show the background.
The target of another data set is Grb2 SH2 (UniProt P62993). The data set is described as above.
The target of another data set is SHP2-C SH2. The description is as above.
In the next data set the test system is AncSZ. Nature of the data set: phosphorylation enrichment, bacterial display (enrichment ratio); higher = better substrate or ligand; peptides without Tyr show the background.
A further data set concerns c-Src. The data set is described as above.
The target of the next data set is EPHB2 (UniProt P29323). The description is as above.
The target in a further data set is Jak2 (UniProt O60674). Described as above.
The next data set has as its target Hck (UniProt P08631). The data set is described as above.
For another data set, the target named is FGFR1 (UniProt P11362). The data set is described as above.
Another data set concerns the target FGFR3 (UniProt P22607). The data set is described as above.
For a further data set, the target named is MERTK (UniProt Q12866). Described as above.
For a further data set, the target named is EPHB1 (UniProt P54762). The description is as above.
In the next data set the target is Fes (UniProt P07332). Described as above.
The subject of another data set is c-Abl (mouse). Described as above.
Another data set deals with Fer (mouse). The description is as above.
The next data set has as its target Fyn (UniProt P06241). The description is as above.
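Throughout, for SH2 binding enrichment of the phosphorylated peptide, bacterial display: peptide library displayed on the E. coli surface as eCPX fusions, selected cells deep-sequenced, score is each peptide's frequency after selection divided by its frequency in the input.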
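Throughout, for phosphorylation enrichment, bacterial display: 11-residue human phosphosite peptides and single-mutation variants displayed on the E. coli surface, counted by deep sequencing, each peptide's frequency after selection divided by its frequency in the unselected input library; frequency after pTyr selection over input frequency; kinase dosed for 20-30% of maximal phosphorylation in three min.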

Chain of FGFR3 (P22607 whole entry, looked up): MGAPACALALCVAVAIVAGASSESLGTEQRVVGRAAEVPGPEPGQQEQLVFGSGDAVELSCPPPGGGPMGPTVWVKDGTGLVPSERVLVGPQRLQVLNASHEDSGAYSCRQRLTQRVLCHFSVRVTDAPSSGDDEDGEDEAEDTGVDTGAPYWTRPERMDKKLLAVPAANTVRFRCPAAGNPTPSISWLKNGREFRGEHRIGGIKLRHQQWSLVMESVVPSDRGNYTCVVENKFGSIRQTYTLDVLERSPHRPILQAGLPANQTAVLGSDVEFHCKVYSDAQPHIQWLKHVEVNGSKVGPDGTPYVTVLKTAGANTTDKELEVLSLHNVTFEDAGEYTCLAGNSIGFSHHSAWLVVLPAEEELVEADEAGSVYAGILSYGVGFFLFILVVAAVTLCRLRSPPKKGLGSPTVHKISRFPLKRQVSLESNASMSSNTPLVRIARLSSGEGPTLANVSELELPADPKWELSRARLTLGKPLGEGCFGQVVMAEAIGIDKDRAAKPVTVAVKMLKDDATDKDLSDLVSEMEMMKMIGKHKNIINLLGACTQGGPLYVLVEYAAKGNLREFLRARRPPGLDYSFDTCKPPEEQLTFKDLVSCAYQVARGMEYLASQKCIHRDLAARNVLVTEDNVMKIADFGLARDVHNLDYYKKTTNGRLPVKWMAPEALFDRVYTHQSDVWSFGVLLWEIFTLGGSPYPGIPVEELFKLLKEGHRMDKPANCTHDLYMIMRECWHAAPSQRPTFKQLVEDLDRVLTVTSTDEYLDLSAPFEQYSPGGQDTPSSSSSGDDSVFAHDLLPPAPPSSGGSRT
Chain of Hck (P08631 whole entry, looked up): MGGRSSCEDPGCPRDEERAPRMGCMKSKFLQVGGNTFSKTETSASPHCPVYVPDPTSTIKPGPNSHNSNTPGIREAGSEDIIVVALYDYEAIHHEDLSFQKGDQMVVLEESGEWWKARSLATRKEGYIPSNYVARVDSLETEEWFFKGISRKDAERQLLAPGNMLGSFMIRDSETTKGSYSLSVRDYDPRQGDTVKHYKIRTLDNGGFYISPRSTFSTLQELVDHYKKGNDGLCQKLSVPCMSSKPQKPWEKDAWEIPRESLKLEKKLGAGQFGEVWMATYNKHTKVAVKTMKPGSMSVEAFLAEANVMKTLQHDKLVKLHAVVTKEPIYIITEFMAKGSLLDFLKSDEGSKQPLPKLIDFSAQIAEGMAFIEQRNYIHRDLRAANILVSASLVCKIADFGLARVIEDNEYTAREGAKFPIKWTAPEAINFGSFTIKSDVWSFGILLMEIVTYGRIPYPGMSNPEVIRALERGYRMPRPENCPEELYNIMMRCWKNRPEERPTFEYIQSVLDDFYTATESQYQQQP
Chain of Fes (P07332 whole entry, looked up): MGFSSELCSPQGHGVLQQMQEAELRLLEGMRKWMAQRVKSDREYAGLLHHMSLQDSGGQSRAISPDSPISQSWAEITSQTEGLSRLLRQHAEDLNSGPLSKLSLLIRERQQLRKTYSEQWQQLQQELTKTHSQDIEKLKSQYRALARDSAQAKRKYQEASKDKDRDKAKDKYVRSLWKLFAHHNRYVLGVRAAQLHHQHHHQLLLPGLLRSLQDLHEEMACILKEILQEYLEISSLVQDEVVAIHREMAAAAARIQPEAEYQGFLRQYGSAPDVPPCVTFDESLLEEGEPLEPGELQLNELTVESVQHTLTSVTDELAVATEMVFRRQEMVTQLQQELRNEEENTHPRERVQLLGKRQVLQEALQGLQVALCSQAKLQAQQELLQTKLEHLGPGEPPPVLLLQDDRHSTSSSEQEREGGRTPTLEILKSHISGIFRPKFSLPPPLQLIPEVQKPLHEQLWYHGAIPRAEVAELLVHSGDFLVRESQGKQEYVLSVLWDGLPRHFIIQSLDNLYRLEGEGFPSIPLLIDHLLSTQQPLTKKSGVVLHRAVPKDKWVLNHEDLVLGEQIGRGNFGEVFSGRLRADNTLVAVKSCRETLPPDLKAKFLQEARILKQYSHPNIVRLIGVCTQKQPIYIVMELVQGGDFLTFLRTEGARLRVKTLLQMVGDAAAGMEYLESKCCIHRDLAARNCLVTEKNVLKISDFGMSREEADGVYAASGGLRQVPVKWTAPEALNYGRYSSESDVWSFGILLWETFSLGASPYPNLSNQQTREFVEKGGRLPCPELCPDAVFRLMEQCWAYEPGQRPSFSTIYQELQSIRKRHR
Chain of EPHB1 (P54762 whole entry, looked up): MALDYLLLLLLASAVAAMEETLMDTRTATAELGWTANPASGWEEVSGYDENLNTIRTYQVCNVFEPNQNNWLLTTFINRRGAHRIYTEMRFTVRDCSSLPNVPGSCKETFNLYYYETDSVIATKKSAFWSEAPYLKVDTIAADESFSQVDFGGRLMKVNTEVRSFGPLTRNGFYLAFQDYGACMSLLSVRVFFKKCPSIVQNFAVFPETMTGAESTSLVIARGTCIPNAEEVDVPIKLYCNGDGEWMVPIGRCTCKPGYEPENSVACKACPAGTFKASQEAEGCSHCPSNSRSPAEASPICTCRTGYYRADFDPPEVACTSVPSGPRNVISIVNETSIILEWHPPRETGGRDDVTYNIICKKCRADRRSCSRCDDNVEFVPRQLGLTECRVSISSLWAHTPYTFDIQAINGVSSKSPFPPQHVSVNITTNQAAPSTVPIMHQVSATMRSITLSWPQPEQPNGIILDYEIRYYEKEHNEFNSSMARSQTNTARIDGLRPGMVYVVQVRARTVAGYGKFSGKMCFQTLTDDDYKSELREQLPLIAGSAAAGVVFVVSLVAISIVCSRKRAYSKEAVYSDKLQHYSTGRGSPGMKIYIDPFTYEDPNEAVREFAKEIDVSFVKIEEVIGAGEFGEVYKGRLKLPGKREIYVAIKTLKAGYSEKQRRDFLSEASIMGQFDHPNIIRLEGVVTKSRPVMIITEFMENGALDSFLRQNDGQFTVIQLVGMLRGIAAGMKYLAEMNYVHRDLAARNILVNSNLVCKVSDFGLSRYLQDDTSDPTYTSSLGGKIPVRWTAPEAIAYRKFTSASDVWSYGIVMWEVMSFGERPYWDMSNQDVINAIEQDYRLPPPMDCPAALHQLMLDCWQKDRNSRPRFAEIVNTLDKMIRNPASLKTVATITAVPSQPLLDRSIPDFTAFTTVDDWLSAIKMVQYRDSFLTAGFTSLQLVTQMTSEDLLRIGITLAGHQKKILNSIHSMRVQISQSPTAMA
Chain of FGFR1 (P11362 whole entry, looked up): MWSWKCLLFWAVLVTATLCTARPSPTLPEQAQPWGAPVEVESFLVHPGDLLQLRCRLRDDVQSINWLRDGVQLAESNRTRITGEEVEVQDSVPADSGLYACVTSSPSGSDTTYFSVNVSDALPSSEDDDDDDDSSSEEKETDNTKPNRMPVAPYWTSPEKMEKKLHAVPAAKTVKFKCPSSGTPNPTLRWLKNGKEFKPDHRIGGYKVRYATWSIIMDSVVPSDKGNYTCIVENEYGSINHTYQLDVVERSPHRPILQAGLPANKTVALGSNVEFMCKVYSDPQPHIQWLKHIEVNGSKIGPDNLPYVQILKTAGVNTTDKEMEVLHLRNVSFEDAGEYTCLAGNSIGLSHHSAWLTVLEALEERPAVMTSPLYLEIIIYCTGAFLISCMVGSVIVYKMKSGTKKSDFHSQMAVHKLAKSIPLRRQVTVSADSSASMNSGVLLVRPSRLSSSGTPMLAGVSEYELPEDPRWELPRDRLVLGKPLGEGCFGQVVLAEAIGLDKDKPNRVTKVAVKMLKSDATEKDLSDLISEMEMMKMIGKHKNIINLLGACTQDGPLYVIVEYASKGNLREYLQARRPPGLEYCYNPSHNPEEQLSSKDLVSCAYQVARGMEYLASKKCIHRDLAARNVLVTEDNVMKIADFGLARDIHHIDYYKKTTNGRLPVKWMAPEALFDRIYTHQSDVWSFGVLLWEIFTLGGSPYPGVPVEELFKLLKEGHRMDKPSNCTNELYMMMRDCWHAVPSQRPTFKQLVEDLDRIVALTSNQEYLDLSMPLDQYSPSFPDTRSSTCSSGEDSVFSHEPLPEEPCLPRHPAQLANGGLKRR
Chain of Jak2 (O60674 whole entry, looked up): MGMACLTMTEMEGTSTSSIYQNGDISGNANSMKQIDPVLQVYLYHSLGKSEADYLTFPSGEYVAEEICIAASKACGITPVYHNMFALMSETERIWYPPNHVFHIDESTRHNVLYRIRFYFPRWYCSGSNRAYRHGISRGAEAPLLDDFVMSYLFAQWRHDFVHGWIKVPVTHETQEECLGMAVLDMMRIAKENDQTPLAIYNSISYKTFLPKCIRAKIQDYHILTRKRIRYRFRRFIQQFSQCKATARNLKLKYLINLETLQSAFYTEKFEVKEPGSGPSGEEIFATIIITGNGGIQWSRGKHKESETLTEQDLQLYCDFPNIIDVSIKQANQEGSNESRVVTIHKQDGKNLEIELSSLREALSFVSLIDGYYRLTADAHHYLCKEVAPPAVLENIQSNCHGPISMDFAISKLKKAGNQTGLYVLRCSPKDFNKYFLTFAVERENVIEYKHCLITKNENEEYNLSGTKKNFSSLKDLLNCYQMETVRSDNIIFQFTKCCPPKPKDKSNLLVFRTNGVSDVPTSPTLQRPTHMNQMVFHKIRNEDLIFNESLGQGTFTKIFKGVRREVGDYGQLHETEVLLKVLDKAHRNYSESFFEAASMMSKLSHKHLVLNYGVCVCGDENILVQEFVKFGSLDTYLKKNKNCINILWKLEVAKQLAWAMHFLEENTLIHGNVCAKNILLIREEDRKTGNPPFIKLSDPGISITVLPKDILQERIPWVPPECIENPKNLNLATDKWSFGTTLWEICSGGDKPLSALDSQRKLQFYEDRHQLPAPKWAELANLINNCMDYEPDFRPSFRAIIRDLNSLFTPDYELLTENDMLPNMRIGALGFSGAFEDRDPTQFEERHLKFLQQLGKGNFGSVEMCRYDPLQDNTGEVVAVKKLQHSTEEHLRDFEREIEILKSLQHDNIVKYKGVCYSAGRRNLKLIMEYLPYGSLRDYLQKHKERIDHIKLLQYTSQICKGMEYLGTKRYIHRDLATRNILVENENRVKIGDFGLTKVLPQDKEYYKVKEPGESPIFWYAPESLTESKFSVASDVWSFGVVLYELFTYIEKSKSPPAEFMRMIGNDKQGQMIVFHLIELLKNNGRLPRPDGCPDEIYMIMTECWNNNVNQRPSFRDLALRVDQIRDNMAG

As to YPIDHYLGKEM [G6PD_Y202_R198P], the SH2 binding enrichment in the data set with c-Src SH2 worked out at 0.434; with Grb2 SH2 it was 0.708; with SHP2-C SH2 it was 0.576. In addition, the phosphorylation enrichment is 0.771 in the data set with AncSZ; 0.505 in the data set on c-Src; 0.54 with EPHB2; 0.806 with Jak2; 0.492 with Hck; 0.613 with FGFR1. The phosphorylation enrichment with FGFR3 was 0.577; with MERTK, 0.412; with EPHB1 it was 0.405; with Fes it was 0.891; with c-Abl (mouse), 0.584; in the data set on Fer (mouse) it was 0.415. For the same sequence, the phosphorylation enrichment in the data set with Fyn worked out at 0.48.

In the case of YQRITYHNWRH [PDE6B_Y556_R552Q], the SH2 binding enrichment in the data set with c-Src SH2 turned out to be 2.5; with Grb2 SH2 it was 1.62; with SHP2-C SH2, 1.68. For the same sequence, the phosphorylation enrichment in the data set on AncSZ was found to be 0.59; in the data set with c-Src, 0.486; with EPHB2 it was 0.483; with Jak2, 0.561; in the data set with Hck, 0.579; with FGFR1, 0.626. The phosphorylation enrichment with FGFR3 was 0.618; with MERTK it was 0.482; with EPHB1, 0.386; in the data set with Fes, 0.619; in the data set with c-Abl (mouse), 0.485; in the data set on Fer (mouse) it was 0.461. For the same sequence, in the data set with Fyn, the phosphorylation enrichment is 0.446.

On to YRASYYRRGDR [LTK_Y677], for which the SH2 binding enrichment in the data set with c-Src SH2 is 0.411; with Grb2 SH2, 0.704; with SHP2-C SH2, 0.609. In addition, the phosphorylation enrichment in the data set with AncSZ was 0.653; with c-Src, 0.598; with EPHB2, 0.535; with Jak2 it was 0.436; with Hck it was 0.494; with FGFR1, 0.511. For the same sequence, the phosphorylation enrichment came out at 0.431 with FGFR3; 0.603 in the data set with MERTK; 0.446 in the data set with EPHB1; 0.485 in the data set with Fes; 0.693 in the data set with c-Abl (mouse); 0.496 in the data set on Fer (mouse). In addition, the phosphorylation enrichment with Fyn came to 0.534.

YRDMDYRSYPH [RBM10_Y41_R46H]: the SH2 binding enrichment turned out to be 0.938 with c-Src SH2, 0.998 in the data set with Grb2 SH2 and 0.825 in the data set with SHP2-C SH2. Besides, the phosphorylation enrichment with AncSZ was 0.567; in the data set on c-Src it was 0.376; in the data set with EPHB2, 0.486; in the data set with Jak2, 0.621; with Hck it was 0.457; with FGFR1, 3.25. The phosphorylation enrichment with FGFR3 came to 2.1; with MERTK, 0.357; with EPHB1, 0.578; in the data set with Fes it was 0.64; in the data set with c-Abl (mouse) it was 0.5; in the data set with Fer (mouse), 0.487. Besides, the phosphorylation enrichment with Fyn stood at 0.412.

On to YRQLQYCPSVE [CTNND2_Y508], for which the SH2 binding enrichment in the data set with c-Src SH2 was 0.472; in the data set with Grb2 SH2, 0.678; in the data set with SHP2-C SH2, 0.488. Moreover, the phosphorylation enrichment is 1.11 in the data set with AncSZ; 0.476 with c-Src; 0.591 with EPHB2; 0.857 with Jak2; 0.606 with Hck; 0.545 with FGFR1. Further, the phosphorylation enrichment with FGFR3 is 0.928; with MERTK, 0.483; in the data set with EPHB1, 0.661; with Fes, 1.31; in the data set on c-Abl (mouse), 0.861; with Fer (mouse), 0.637. Moreover, in the data set with Fyn, the phosphorylation enrichment is 0.538.

On to YSQNIYIQNRN [PKP2_Y631], for which the figures for the SH2 binding enrichment in the data set with c-Src SH2, with Grb2 SH2 and with SHP2-C SH2 were 0.691, 0.896 and 0.906, respectively. Besides, the phosphorylation enrichment with AncSZ came to 0.804; with c-Src, 0.528; in the data set with EPHB2, 0.569; with Jak2 it was 0.59; in the data set with Hck, 0.633; with FGFR1, 0.482. For the same sequence, the phosphorylation enrichment with FGFR3 is 0.483; with MERTK it was 1.43; with EPHB1, 0.424; in the data set with Fes, 0.706; with c-Abl (mouse), 0.6; with Fer (mouse), 0.489. The phosphorylation enrichment with Fyn stood at 0.443.

For YTGDIYSNSNL [LZTR1_Y141], the values for the SH2 binding enrichment in the data set with c-Src SH2, in the data set with Grb2 SH2 and with SHP2-C SH2 were 0.479, 0.648 and 0.545, respectively. For the same sequence, the phosphorylation enrichment stood at 0.954 in the data set on AncSZ; 4.63 in the data set with c-Src; 1.53 with EPHB2; 0.524 with Jak2; 7.87 in the data set with Hck; 0.626 with FGFR1. Moreover, the phosphorylation enrichment with FGFR3 is 0.616; with MERTK it was 2.36; with EPHB1, 1.19; in the data set with Fes, 0.707; in the data set with c-Abl (mouse) it was 0.911; in the data set with Fer (mouse), 3.56. The phosphorylation enrichment with Fyn is 7.46.

As to YTGNTYRVGDT [FN1_Y106], the SH2 binding enrichment with c-Src SH2 stood at 0.406; in the data set with Grb2 SH2, 0.766; with SHP2-C SH2, 0.55. The phosphorylation enrichment in the data set on AncSZ stood at 0.666; in the data set on c-Src it was 0.467; with EPHB2, 0.424; in the data set with Jak2 it was 0.563; with Hck, 0.486; with FGFR1, 0.439. The phosphorylation enrichment with FGFR3 amounted to 0.534; in the data set with MERTK, 0.389; with EPHB1, 0.448; with Fes, 0.775; with c-Abl (mouse), 0.569; in the data set on Fer (mouse), 0.415. The phosphorylation enrichment in the data set with Fyn amounted to 0.441.

The values are drawn from the supplement of paper PMC10065799, “High-throughput profiling of sequence recognition by tyrosine kinases and SH2 domains using bacterial peptide display” (eLife, 2023).
